# Results taken from IntAct's records for PubMed 19490898.
# B1: Ras-related protein Rab-9A (Canis familiaris (dog)), P24408 (parent)
# chain: MAGKSSLFKVILLGDGGVGKSSLMNRYVTNKFDTQLFHTIGVEFLNKDLEVDGHFVTMQIWDTAGQERFRSLRTPFYRGSDCCLLTFSVDDSQSFQNLSNWKKEFIYYADVKEPESFPFVILGNKIDISERQVSTEEAQAWCRDNGDYPYFETSAKDATNVAAAFEEAVRRVLATEDRSDHLIQTDTVSLHRKPKPSSSCC
# Variants of: B1
# Conditions: with rhbt3_human RHOBTB3, O94955
# Sequence of rhbt3_human RHOBTB3, O94955 (O94955 whole entry): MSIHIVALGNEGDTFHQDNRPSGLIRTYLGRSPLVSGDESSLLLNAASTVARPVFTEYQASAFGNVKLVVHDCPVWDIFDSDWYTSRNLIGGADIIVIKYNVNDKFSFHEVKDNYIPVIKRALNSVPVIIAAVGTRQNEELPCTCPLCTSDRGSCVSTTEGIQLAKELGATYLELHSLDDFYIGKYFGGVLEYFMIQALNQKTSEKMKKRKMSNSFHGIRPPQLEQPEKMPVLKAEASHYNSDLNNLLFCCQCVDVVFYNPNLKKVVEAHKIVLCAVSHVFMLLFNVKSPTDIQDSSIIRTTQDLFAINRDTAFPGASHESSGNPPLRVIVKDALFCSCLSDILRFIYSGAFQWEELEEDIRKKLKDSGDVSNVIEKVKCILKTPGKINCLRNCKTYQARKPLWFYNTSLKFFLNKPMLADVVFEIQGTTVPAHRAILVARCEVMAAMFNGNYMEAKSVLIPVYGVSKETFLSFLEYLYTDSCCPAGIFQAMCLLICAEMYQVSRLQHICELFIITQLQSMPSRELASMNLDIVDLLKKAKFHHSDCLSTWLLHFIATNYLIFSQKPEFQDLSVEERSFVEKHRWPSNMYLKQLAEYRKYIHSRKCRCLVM
row,Variant,effect of a mutation on the interaction
1,MAGKSSLFKVILLGDGGVGKNSLMNRYVTNKFDTQLFHTIGVEFLNKDLEVDGHFVTMQIWDTAGQERFRSLRTPFYRGSDCCLLTFSVDDSQSFQNLSNWKKEFIYYADVKEPESFPFVILGNKIDISERQVSTEEAQAWCRDNGDYPYFETSAKDATNVAAAFEEAVRRVLATEDRSDHLIQTDTVSLHRKPKPSSSCC [S21N],decreasing interaction
